Patent publication US20040109827A1, “Powdery preparations and proecss for producing the same” (priority 2000, published 2004)

Assay: Cascade impactor (Andersen sampler) analysis of powder formulations as a model of artificial airways and lung
Settings: Table 9
Protocol: In order to investigate aerodynamic particle diameters of powders, examination was carried out using a cascade impactor as a model of artificial airways and lung. The main body comprises 8 stages and a final filter superposed on top of another in combination with a flow meter and a suction pump. The method described in “Multistage Cascade Impactor Apparatus” in USP 2000 “Physical Tests and Determinations/Aerosols” was basically employed. A specific condition is as described below.
Suitable amounts of the formulations were filled into the No. 2 capsules specified by the Japanese Pharmacopoeia and placed on the device.
These formulations were analyzed using a cascade impactor. […] These RF values are obtained by weighing the powders collected at each stage and dividing the amounts collected at stages 2 to 5 by a total amount of finely ground substances contained in the formulations.
These formulations were analyzed using a cascade impactor. […] These RF values are obtained by quantifying by HPLC the glucagon in formulations collected at each stage and dividing the amounts of glucagon at stages 2 to 5 by the total amount of glucagon contained in the encapsulated formulations. Conditions for HPLC analysis are as shown below.
These formulations were filled into the No. 2 capsules specified by the Pharmacopoeia of Japan and analyzed using the following device.

With glucagon the Retention in capsule (No. 2 capsule, Jet-haler, suctioning for 10 seconds) was “Almost all formulations remained due” and the RF value (glucagon by HPLC at stages 2 to 5 / total glucagon in encapsulated formulations, lactose carrier Pharmatose 325 M) was 0%.
